Here are results for seven variants from article PMC9537309.

B1: FLAG-tagged DND1 wild-type (Dead End, full-length human protein 1-353) [human] / MATR3 [human (endogenous in HEK293T)] (parent)
chain 1: MQSKRDCELWCERVNPENKAALEAWVRETGIRLVQVNGQRKYGGPPPGWVGSPPPAGSEVFIGRLPQDVYEHQLIPLFQRVGRLYEFRLMMTFSGLNRGFAYARYSSRRGAQAAIATLHNHPLRPSCPLLVCRSTEKCELSVDGLPPNLTRSALLLALQPLGPGLQEARLLPSPGPAPGQIALLKFSSHRAAAMAKKALVEGQSHLCGEQVAVEWLKPDLKQRLRQQLVGPFLRSPQPEGSQLALARDKLGFQGARATLQLLCQRMKLGSPVFLTKCLGIGPAGWHRFWYQVVIPGHPVPFSGLIWVVLTLDGRDGHEVAKDAVSVRLLQALSESGANLLWSAGAEAGTMVKQ
chain 2: MSKSFQQSSLSRDSQGHGRDLSAAGIGLLAAATQSLSMPASLGRMNQGTARLASLMNLGMSSSLNQQGAHSALSSASTSSHNLQSIFNIGSRGPLPLSSQHRGDADQASNILASFGLSARDLDELSRYPEDKITPENLPQILLQLKRRRTEEGPTLSYGRDGRSATREPPYRVPRDDWEEKRHFRRDSFDDRGPSLNPVLDYDHGSRSQESGYYDRMDYEDDRLRDGERCRDDSFFGETSHNYHKFDSEYERMGRGPGPLQERSLFEKKRGAPPSSNIEDFHGLLPKGYPHLCSICDLPVHSNKEWSQHINGASHSRRCQLLLEIYPEWNPDNDTGHTMGDPFMLQQSTNPAPGILGPPPPSFHLGGPAVGPRGNLGAGNGNLQGPRHMQKGRVETSRVVHIMDFQRGKNLRYQLLQLVEPFGVISNHLILNKINEAFIEMATTEDAQAAVDYYTTTPALVFGKPVRVHLSQKYKRIKKPEGKPDQKFDQKQELGRVIHLSNLPHSGYSDSAVLKLAEPYGKIKNYILMRMKSQAFIEMETREDAMAMVDHCLKKALWFQGRCVKVDLSEKYKKLVLRIPNRGIDLLKKDKSRKRSYSPDGKESPSDKKSKTDGSQKTESSTEGKEQEEKSGEDGEKDTKDDQTEQEPNMLLESEDELLVDEEEAAALLESGSSVGDETDLANLGDVASDGKKEPSDKAVKKDGSASAAAKKKLKKVDKIEELDQENEAALENGIKNEENTEPGAESSENADDPNKDTSENADGQSDENKDDYTIPDEYRIGPYQPNVPVGIDYVIPKTGFYCKLCSLFYTNEEVAKNTHCSSLPHYQKLKKFLNKLAEERRQKKET
B2: FLAG-tagged DND1 wild-type (Dead End, full-length human protein 1-353) [human] / HNRNPL [human (endogenous in HEK293T)] (parent)
chain 1: B1 chain 1
chain 2: MSRRLLPRAEKRRRRLEQRQQPDEQRRRSGAMVKMAAAGGGGGGGRYYGGGSEGGRAPKRLKTDNAGDQHGGGGGGGGGAGAAGGGGGGENYDDPHKTPASPVVHIRGLIDGVVEADLVEALQEFGPISYVVVMPKKRQALVEFEDVLGACNAVNYAADNQIYIAGHPAFVNYSTSQKISRPGDSDDSRSVNSVLLFTILNPIYSITTDVLYTICNPCGPVQRIVIFRKNGVQAMVEFDSVQSAQRAKASLNGADIYSGCCTLKIEYAKPTRLNVFKNDQDTWDYTNPNLSGQGDPGSNPNKRQRQPPLLGDHPAEYGGPHGGYHSHYHDEGYGPPPPHYEGRRMGPPVGGHRRGPSRYGPQYGHPPPPPPPPEYGPHADSPVLMVYGLDQSKMNCDRVFNVFCLYGNVEKVKFMKSKPGAAMVEMADGYAVDRAITHLNNNFMFGQKLNVCVSKQPAIMPGQSYGLEDGSCSYKDFSESRNNRFSTPEQAAKNRIQHPSNVLHFFNAPLEVTEENFFEICDELGVKRPSSVKVFSGKSERSSSGLLEWESKSDALETLGFLNHYQMKNPNGPYPYTLKLCFSTAQHAS
B3: FLAG-tagged DND1 wild-type (Dead End, full-length human protein 1-353) [human] / DHX30 [human (endogenous in HEK293T)] (parent)
chain 1: B1 chain 1
chain 2: MFSLDSFRKDRAQHRQRQCKLPPPRLPPMCVNPTPGGTISRASRDLLKEFPQPKNLLNSVIGRALGISHAKDKLVYVHTNGPKKKKVTLHIKWPKSVEVEGYGSKKIDAERQAAAAACQLFKGWGLLGPRNELFDAAKYRVLADRFGSPADSWWRPEPTMPPTSWRQLNPESIRPGGPGGLSRSLGREEEEDEEEELEEGTIDVTDFLSMTQQDSHAPLRDSRGSSFEMTDDDSAIRALTQFPLPKNLLAKVIQIATSSSTAKNLMQFHTVGTKTKLSTLTLLWPCPMTFVAKGRRKAEAENKAAALACKKLKSLGLVDRNNEPLTHAMYNLASLRELGETQRRPCTIQVPEPILRKIETFLNHYPVESSWIAPELRLQSDDILPLGKDSGPLSDPITGKPYVPLLEAEEVRLSQSLLELWRRRGPVWQEAPQLPVDPHRDTILNAIEQHPVVVISGDTGCGKTTRIPQLLLERYVTEGRGARCNVIITQPRRISAVSVAQRVSHELGPSLRRNVGFQVRLESKPPSRGGALLFCTVGILLRKLQSNPSLEGVSHVIVDEVHERDVNTDFLLILLKGLQRLNPALRLVLMSATGDNERFSRYFGGCPVIKVPGFMYPVKEHYLEDILAKLGKHQYLHRHRHHESEDECALDLDLVTDLVLHIDARGEPGGILCFLPGWQEIKGVQQRLQEALGMHESKYLILPVHSNIPMMDQKAIFQQPPVGVRKIVLATNIAETSITINDIVHVVDSGLHKEERYDLKTKVSCLETVWVSRANVIQRRGRAGRCQSGFAYHLFPRSRLEKMVPFQVPEILRTPLENLVLQAKIHMPEKTAVEFLSKAVDSPNIKAVDEAVILLQEIGVLDQREYLTTLGQRLAHISTDPRLAKAIVLAAIFRCLHPLLVVVSCLTRDPFSSSLQNRAEVDKVKALLSHDSGSDHLAFVRAVAGWEEVLRWQDRSSRENYLEENLLYAPSLRFIHGLIKQFSENIYEAFLVGKPSDCTLASAQCNEYSEEEELVKGVLMAGLYPNLIQVRQGKVTRQGKFKPNSVTYRTKSGNILLHKSTINREATRLRSRWLTYFMAVKSNGSVFVRDSSQVHPLAVLLLTDGDVHIRDDGRRATISLSDSDLLRLEGDSRTVRLLKELRRALGRMVERSLRSELAALPPSVQEEHGQLLALLAELLRGPCGSFDVRKTADD
B4: FLAG-tagged DND1 wild-type (Dead End, full-length human protein 1-353) [human] / HNRNPC [human (endogenous in HEK293T)] (parent)
chain 1: B1 chain 1
chain 2: MASNVTNKTDPRSMNSRVFIGNLNTLVVKKSDVEAIFSKYGKIVGCSVHKGFAFVQYVNERNARAAVAGEDGRMIAGQVLDINLAAEPKVNRGKAGVKRSAAEMYGSVTEHPSPSPLLSSSFDLDYDFQRDYYDRMYSYPARVPPPPPIARAVVPSKRQRVSGNTSRRGKSGFNSKSGQRGSSKSGKLKGDDLQAIKKELTQIKQKVDSLLENLEKIEKEQSKQAVEMKNDKSEEEQSSSSVKKDETNVKMESEGGADDSAEEGDLLDDDDNEDRGDDQLELIKDDEKEAEEGEDDRDSANGEDDS
B5: FLAG-tagged DND1 wild-type (Dead End, full-length human protein 1-353) [human] / SYNCRIP [human (endogenous in HEK293T)] (parent)
chain 1: B1 chain 1
chain 2: MATEHVNGNGTEEPMDTTSAVIHSENFQTLLDAGLPQKVAEKLDEIYVAGLVAHSDLDERAIEALKEFNEDGALAVLQQFKDSDLSHVQNKSAFLCGVMKTYRQREKQGTKVADSSKGPDEAKIKALLERTGYTLDVTTGQRKYGGPPPDSVYSGQQPSVGTEIFVGKIPRDLFEDELVPLFEKAGPIWDLRLMMDPLTGLNRGYAFVTFCTKEAAQEAVKLYNNHEIRSGKHIGVCISVANNRLFVGSIPKSKTKEQILEEFSKVTEGLTDVILYHQPDDKKKNRGFCFLEYEDHKTAAQARRRLMSGKVKVWGNVGTVEWADPIEDPDPEVMAKVKVLFVRNLANTVTEEILEKAFSQFGKLERVKKLKDYAFIHFDERDGAVKAMEEMNGKDLEGENIEIVFAKPPDQKRKERKAQRQAAKNQMYDDYYYYGPPHMPPPTRGRGRGGRGGYGYPPDYYGYEDYYDYYGYDYHNYRGGYEDPYYGYEDFQVGARGRGGRGARGAAPSRGRGAAPPRGRAGYSQRGGPGSARGVRGARGGAQQQRGRGVRGARGGRGGNVGGKRKADGYNQPDSKRRQTNNQNWGSQPIAQQPLQGGDHSGNYGYKSENQEFYQDTFGQQWK
B6: FLAG-tagged DND1 wild-type (Dead End, full-length human protein 1-353) [human] / RNA helicase MOV10 [human (endogenous in HEK293T)] (parent)
chain 1: B1 chain 1
chain 2: MPSKFSCRQLREAGQCFESFLVVRGLDMETDRERLRTIYNRDFKISFGTPAPGFSSMLYGMKIANLAYVTKTRVRFFRLDRWADVRFPEKRRMKLGSDISKHHKSLLAKIFYDRAEYLHGKHGVDVEVQGPHEARDGQLLIRLDLNRKEVLTLRLRNGGTQSVTLTHLFPLCRTPQFAFYNEDQELPCPLGPGECYELHVHCKTSFVGYFPATVLWELLGPGESGSEGAGTFYIARFLAAVAHSPLAAQLKPMTPFKRTRITGNPVVTNRIEEGERPDRAKGYDLELSMALGTYYPPPRLRQLLPMLLQGTSIFTAPKEIAEIKAQLETALKWRNYEVKLRLLLHLEELQMEHDIRHYDLESVPMTWDPVDQNPRLLTLEVPGVTESRPSVLRGDHLFALLSSETHQEDPITYKGFVHKVELDRVKLSFSMSLLSRFVDGLTFKVNFTFNRQPLRVQHRALELTGRWLLWPMLFPVAPRDVPLLPSDVKLKLYDRSLESNPEQLQAMRHIVTGTTRPAPYIIFGPPGTGKTVTLVEAIKQVVKHLPKAHILACAPSNSGADLLCQRLRVHLPSSIYRLLAPSRDIRMVPEDIKPCCNWDAKKGEYVFPAKKKLQEYRVLITTLITAGRLVSAQFPIDHFTHIFIDEAGHCMEPESLVAIAGLMEVKETGDPGGQLVLAGDPRQLGPVLRSPLTQKHGLGYSLLERLLTYNSLYKKGPDGYDPQFITKLLRNYRSHPTILDIPNQLYYEGELQACADVVDRERFCRWAGLPRQGFPIIFHGVMGKDEREGNSPSFFNPEEAATVTSYLKLLLAPSSKKGKARLSPRSVGVISPYRKQVEKIRYCITKLDRELRGLDDIKDLKVGSVEEFQGQERSVILISTVRSSQSFVQLDLDFNLGFLKNPKRFNVAVTRAKALLIIVGNPLLLGHDPDWKVFLEFCKENGGYTGCPFPAKLDLQQGQNLLQGLSKLSPSTSGPHSHDYLPQEREGEGGLSLQVEPEWRNEL
B7: FLAG-tagged DND1 wild-type (Dead End, full-length human protein 1-353) [human] / MEX3A [human (endogenous in HEK293T)] (parent)
chain 1: B1 chain 1
chain 2: MPSLVVSGIMERNGGFGELGCFGGSAKDRGLLEDERALQLALDQLCLLGLGEPPAPTAGEDGGGGGGGAPAQPAAPPQPAPPPPPAAPPAAPTAAPAAQTPQPPTAPKGASDAKLCALYKEAELRLKGSSNTTECVPVPTSEHVAEIVGRQGCKIKALRAKTNTYIKTPVRGEEPVFMVTGRREDVATARREIISAAEHFSMIRASRNKSGAAFGVAPALPGQVTIRVRVPYRVVGLVVGPKGATIKRIQQQTNTYIITPSRDRDPVFEITGAPGNVERAREEIETHIAVRTGKILEYNNENDFLAGSPDAAIDSRYSDAWRVHQPGCKPLSTFRQNSLGCIGECGVDSGFEAPRLGEQGGDFGYGGYLFPGYGVGKQDVYYGVAETSPPLWAGQENATPTSVLFSSASSSSSSSAKARAGPPGAHRSPATSAGPELAGLPRRPPGEPLQGFSKLGGGGLRSPGGGRDCMVCFESEVTAALVPCGHNLFCMECAVRICERTDPECPVCHITATQAIRIFS

The variants in one experiment derive from B1. Description: FLAG immunoprecipitation and LC/ESI-MS/MS. As to conditions: with MATR3 [human (endogenous in HEK293T)]; HEK293T cells, three biological replicates; read off a plot.
For the variant chain 1 R98A, the screen value is -0.52.

Variants of B2 are the subject of a further experiment. The experiment is described as follows: FLAG immunoprecipitation and LC/ESI-MS/MS. As to conditions: with HNRNPL [human (endogenous in HEK293T)]; HEK293T cells, three biological replicates; read off a plot.
Consider chain 1 R98A, for which the screen value is -1.7.

In the next experiment the parent is B3. The experiment is described as follows: FLAG immunoprecipitation and LC/ESI-MS/MS. The settings on record: with DHX30 [human (endogenous in HEK293T)]; HEK293T cells, three biological replicates; read off a plot.
As for chain 1 R98A, the screen value is -2.3.

In another experiment the parent is B4. Description: FLAG immunoprecipitation and LC/ESI-MS/MS. The settings on record: with HNRNPC [human (endogenous in HEK293T)]; HEK293T cells, three biological replicates; read off a plot.
In the case of chain 1 R98A, the screen value was -0.8.

The next experiment covers variants of B5. Description: FLAG immunoprecipitation and LC/ESI-MS/MS. As to conditions: with SYNCRIP [human (endogenous in HEK293T)]; HEK293T cells, three biological replicates; read off a plot.
Turning to chain 1 R98A, the screen value was -2.5.

The variants in the next experiment derive from B6. Description: FLAG immunoprecipitation and LC/ESI-MS/MS. As to conditions: with RNA helicase MOV10 [human (endogenous in HEK293T)]; HEK293T cells, three biological replicates; read off a plot.
For chain 1 R98A, the screen value is -3.2.

Another experiment covers variants of B7. The experiment is described as follows: FLAG immunoprecipitation and LC/ESI-MS/MS. As to conditions: with MEX3A [human (endogenous in HEK293T)]; HEK293T cells, three biological replicates; read off a plot.
Regarding chain 1 R98A, the screen value was -3.2.
